Columns and labels:
A549 tumor cells = experiment: Cell viability, MTT assay, 1-6 days; format: cell-based, human; conditions: 10 μg/ml
Experimental: The cell survival rate was evaluated in a standard MTT assay [3-(4,5-dimethylthiazol-2-yl)-2,5-diphenyltetrazolium bromide assay, Sigma, St. Louis, Mo.). For the assay, about 20 μl MTT (at 4 mg/ml) was added to each well. The cells were incubated at 37° C. for 4 hr. After that, the supernatant of each well was drawn off carefully and then an equal volume (150 microliter) of dimethyl sulfoxide (DMSO) was added to each well and mixed thoroughly on a shaker for 15 min. The absorbance from the plates was read at 595 nm with a Thermo Scientific Microplate Reader (Thermo Fisher Scientific Inc., Lowell, Mass.). The relative cell viability was calculated as follows: Cell viability=(Treated group(OD595) minus blank(OD595))/(Control group(OD595) minus blank(OD595))×100%.

[1] = test system: beta-catenin/TCF mediated transcriptional activity; experiment: Beta-catenin/TCF transcription reporter assay (TOPFlash); format: cell-based, human; conditions: 10 mcg/ml, 24 hours
Experimental: The effect of rSIFN-co on Wnt/Beta-catenin signaling in vitro was determined. Cancer cells were plated in 96-well plates (at 1×10^4 cells per well), and incubated for 12 hours, after which they were transiently transfected with 100 ng TOPFlash (Millipore Corporation, Billerica, Mass., USA). […] After interferon treatment for 24 hours, luciferase assay was performed using the Dual Luciferase Assay System kit according to the manufacturer's protocols (Cat #:E1960, Promega). Relative luciferase activity was reported as a ratio of firefly/renilla luciferase activity. Experiments were performed in triplicate.

LRP6 = experiment: qPCR of Wnt-related co-receptor mRNA; format: cell-based, human; conditions: 10 μg/ml, 24 hr
Experimental: The regulation of LRP6/FZD6 by rSIFN-co was investigated. This was conducted by qPCR as performed in Example 9. […] After 24 hr of treatment, total cellular mRNA was isolated using TRIZOL Reagent, and cDNA was subjected to qPCR using specific primers of LRP6 and FZD6. The primers used were: LRP6 sense primer: 5′-[…]-3′ (SEQ ID NO: 4) and antisense primer: 5′-[…]-3′ (SEQ ID NO: 5), and FZD6 sense primer: 5′-[…]-3′ (SEQ ID NO: 6) and antisense primer: 5′-[…]-3′ (SEQ ID NO: 7). Experiments were conducted in triplicate and normalized with the Mock control group. Results were recorded as relative mRNA level of either LRP6 or FZD6 relative to GAPDH.

colon cancer SW620 cells = experiment: Cell migration assay across microporous membranes; format: cell-based, human; conditions: 10 μg/ml, 24 hr
Experimental: (§1) The cell migration assay was performed using 8 μm cell culture inserts in 24-well plates (Becton-Dickinson Biosciences, NJ, USA). Warm (37° C.) bicarbonate based culture medium without FBS was added to the interior of the inserts and to the bottoms of the wells, and were allowed to rehydrate for 2 hr in humidified tissue culture incubator at 37° C. in 5% CO2. After rehydration, the culture medium was carefully removed. […] In the lower compartment of the 24-well plates were placed 500 μl of complete medium with 10% FBS. After 24 hr at 37° C. under the regular culture conditions, the non-migrated cells in the upper part of the chamber membranes were removed with a cotton swab. The lower part of the culture inserts were fixed with 4% paraformaldehyde and stained with 2% crystal violet. The number of migrated cells on the opposite side of the chamber membranes from where the cells were placed was counted in each of the triplicate wells. Each experiment was repeated at least two times, each time with triplicate wells.

lung cancer A549 cells = experiment: Cell migration assay across microporous membranes; format: cell-based, human; conditions: 10 μg/ml, 24 hr, untreated Mock about 30
Experimental: as §1

[2] = test system: procaspase-3, cleaved caspase-3, procaspase-8, cleaved caspase-8, PARP; experiment: Apoptosis-related molecular markers by Western Blot; format: cell-based, human; conditions: A549 and SW620 cells, 24 hr or 48 hr; interferons 10 mcg/ml
Description: Thereafter, apoptosis-related molecular markers were monitored by Western Blot. The primary antibodies used were mouse monoclonal anti-beta-tubulin (1:2000, Cat #: CW0098A) and mouse monoclonal anti-GAPDH (1:2000, Cat #: CW0100A) (Kangwei Biotechnology, China); mouse monoclonal anti-PARP (1:1000, Cat #: sc-2007, Santa Cruz Biotechnology, Inc.); rabbit monoclonal anti-procaspase 3 (1:1000, Cat #: 9665), and rabbit polyclonal anti-cleaved caspase 3 (1:1000, Cat #: 9661) (Cell Signaling Technology, USA); goat polyclonal anti-procaspase 8 (1:1000, Cat #: sc-6136, Santa Cruz Biotechnology, Inc); rabbit monoclonal anti-cleaved caspase 8 (1:1000, Cat #: 9496) (Cell Signaling Technology, USA).

[3] = test system: human hepatoma SMMC-7721 xenografts; experiment: rSIFN-co on human hepatoma SMMC-7721 xenografts in nude mice; conditions: for TV(mm^3, mean ± SD) (D 0): day 0; for % Inhibition / T/C (%) / TV(mm^3, mean ± SD) (D 21): day 21
Experimental: The test article was used without dilution. It was stored at 4° C. until thawed for injection.
The animals used were 4-6 weeks old male BALB/cA nu/nu mice, weighing about 23±2 g, obtained from the Shanghai Institute of Materia Medica (Shanghai, P.R. China). […] Animals were housed 6 to a cage. They were ear-marked with ear hole punch identification. The room temperature was maintained at 25° C.±+1° C. Lighting was set at 12 hr on and 12 hr off. Food was provided ad libitum. City tap water, filtered with a 5 micrometer (μm) filter, was provided to the animals ad libitum via water bottles.
The test article was administered in a volume of 0.05 ml-0.15 ml per mouse per treatment, depending on the group to which the animal was assigned. […] Normal saline was injected in a volume of 0.15 ml per mouse, which was used as vehicle control.
Animals were assigned to treatment groups randomly. Initially, all animals were placed in one large animal cage. For assignment to the study, they were later separately housed, with 6 animals per cage per treatment group. Groups 1 and 2 are Control groups in which the animals were each administered the vehicle every other day after the first treatment. […] Tumor growth was monitored by measuring the length and width of each tumor twice a week during the course of the study. Each animal was also weighed twice a week during the course of the study.
Before commencement of this study, the xenografts were passaged twice in nude mice. Under sterile conditions, well-grown tumors were cut into 1.5 mm^3 fragments and one such fragment was injected by trocar needle into the right flank of each study animal. […] Individual tumor size (length and width) was measured twice per week with microcalipers. Tumor volume (V) was calculated using the formula: V=(length×width^2)/2. Individual relative tumor volume (RTV) was calculated using the formula: RTV=Vt/V0, where Vt is the tumor volume on the day of measurement and V0 is the tumor volume on the day of first treatment. Therapeutic effect of the test article or control article was expressed in terms of T/C (%), using the formula: T/C (%)=(mean RTV of the treated group/mean RTV of the control group)×100%; and in terms of % Inhibition, using the formula: % Inhibition=100%−T/C %.

[4] = 0.05 mg/mouse i.t. every other day
[5] = 0.10 mg/mouse i.t. every other day
[6] = 0.15 mg/mouse i.t. every other day

B1: rSIFN-co: Recombinant super-compound interferon; amino acid sequence SEQ ID NO: 1 (same as INFERGEN), encoded by novel nucleotide sequence SEQ ID NO: 2 (protein)
chain: MCDLPQTHSLGNRRALILLAQMRRISPFSCLKDRHDFGFPQEEFDGNQFQKAQAISVLHEMIQQTFNLFSTKDSSAAWDESLLEKFYTELYQQLNDLEACVIQEVGVEETPLMNVDSILAVKKYFQRITLYLTEKKYSPCAWEVVRAEIMRSFSLSTNLQERLRRKE
modifications: Amino acid sequence of recombinant interferon
A549 tumor cells
  cell viability over time (MTT): also apparent for A549 cells for only about the first 3 days of treatment
[1]; A549 cells, Control about 310
  Firefly/Renilla ratio: about 100
[1]; H460 cells, Control about 450
  Firefly/Renilla ratio: about 280
[1]; H1299 cells, Control about 800
  Firefly/Renilla ratio: about 500
[1]; HT-29 cells, Control about 300
  Firefly/Renilla ratio: about 200
[1]; SW620 cells, Control about 1500
  Firefly/Renilla ratio: less than 100
LRP6; A549 cells
  relative expression of the LRP6 mRNA: significant reduction
LRP6; HT-29 cells
  relative expression of the LRP6 mRNA: significant reduction
LRP6; SW620 cells
  relative expression of the LRP6 mRNA: significant reduction
Colon cancer SW620 cells
  tumor cell migration: Significant inhibition
Lung cancer A549 cells
  mean number of migrating cells per field: about 10 cells per field
[2]
  level of cleaved caspase-3 and cleaved caspase-8: neither of the interferons, IFN alpha-2b nor rSIFN-co, caused any reduction in the level of procaspase-3 or procaspase-8 or PARP, or induced any enhancement
  level of procaspase-3, procaspase-8 and PARP: neither of the interferons, IFN alpha-2b nor rSIFN-co, caused any reduction
[3]; [4]
  TV(mm^3, mean ± SD) (D 0): 124 ± 26 mm^3
  % Inhibition: 48.01%
  T/C (%): 51.99%
  TV(mm^3, mean ± SD) (D 21): 592 ± 139 mm^3
[3]; [5]
  TV(mm^3, mean ± SD) (D 0): 124 ± 15 mm^3
  % Inhibition: 52.20%
  T/C (%): 47.80%
  TV(mm^3, mean ± SD) (D 21): 573 ± 287 mm^3
[3]; [6]
  TV(mm^3, mean ± SD) (D 0): 123 ± 20 mm^3
  % Inhibition: 56.80%
  T/C (%): 43.20%
  TV(mm^3, mean ± SD) (D 21): 505 ± 226 mm^3
